# Assay results: US5304480
# Columns and labels:
# [1] = system: XhoI restriction endonuclease (Xanthomonas campestris pv. holcicola ATCC 13461); assay: cleavage_in_vitro; settings: 50 mM Tris HCl pH 8.1, 10 mM MgCl2, 50 mM NaCl, 37 C; no activity detected from E. coli DH10B extracts
# [2] = system: XhoII restriction endonuclease (Xanthomonas campestris pv. holcicola ATCC 13461); assay: cleavage_in_vitro; settings: 20 mM Tris HCl pH 7.4, 10 mM MgCl2, 37 C; no activity detected from E. coli DH10B extracts
Substance,activity (units per gram of cells) [1],activity (units per gram of cells) [2]
Adenovirus-2 DNA (XhoI sites),100000,–
phage lambda DNA (XhoII/BstYI sites),–,10000
